Measured values taken from patent US6713294B1, “DNA glycosylases and their use” (priority 1996, dated 2004).

Tests used:
[1] = tested on: ^3H-uracil released in uracil-DNA glycosylase assays; experiment: Uracil-DNA glycosylase activity after coupled transcription/translation in rabbit reticulocyte lysates; type: biochemical
Procedure: In vitro transcription/translation was performed with the TNT® transcription/translation system with […] as recommended by the manufacturer, using 200 ng of the expression constructs per 10 μl reaction volume. The mouse UNG1-pBluescript® construct was transcribed from the T3 promoter in the pBluescript® vector. The insert of mouse UNG2-pBluescript® was amplified by the polymerase chain reaction using Dynazyme® PCR kit, ligated into the pGEM-T vector and transcribed from the T7 promoter. […] Human UNG1 CDNA was transcribed from the T7 promoter as previously described (Slupphaug et al., 1995, Biochemistry, 34, p128-138). The samples were run on a 12% denaturing sodium dodecyl sulfate polyacrylamide gel (SDS-PAGE). The gel was dried, autoradiographed overnight and scanned on an LKB Ultroscan XL Enhanced Laser Densitometer. Uracil-DNA glycosylase activity was measured in parallel samples of the in vitro transcription/translation assay mixture containing unlabelled amino acids (Slupphaug et al., 1995, supra). A construct containing both promoters (pGL2-ProAB) linked to the luciferase gene was prepared by insertion of a PvuII/MluI fragment (the enzymes cleave in positions 418 and 1035, respectively) from the promoter region of the UNG gene into the SmaI-MluI sites of pGL2-ProB. […]

[2] = tested on: [^3H]dUMP-labelled DNA; experiment: Release of uracil from ds or ss [3H]dUMP-labelled DNA; type: biochemical; details: for U-ds, pmol excised per min per mg protein: double-stranded uracil DNA, 0 = below detection limit (10 pmol per mg protein per min); for U-ds, pmol excised per min per mg protein / U-ss, pmol excised per min per mg protein: 2 μM, 10 min, 37° C.; for U-ss, pmol excised per min per mg protein: single-stranded uracil DNA, 0 = below detection limit
Procedure: (§1) To test enzymatic substrate specificities, 250 ng purified human “wild type” UDG (UNGΔ84), UNGΔ84Tyr147Ala or UNGΔ84Asn204Asp, were mixed with 200 ng ds- or ss-[^3H]cytosine-labelled DNA (150 mCi/mmol), or ds- or ss-[^3H]thymine-labelled DNA (100 mCi/mmol) in 10 mM NaCl, 20 mM Tris-HCl (pH 7.5), 1 mM EDTA, 1 mM dithiothreitol and 0.5 mg/ml bovine serum albumin (final concentrations) in 20 μl separate reactions. The final concentrations of the [^3H]cytosine-DNA (C) and [^3H]thymine-DNA (T) substrates were 6.5 μM and 10 μM, respectively. Release of radioactivity as a function of time was measured at 37° C. These conditions are later referred to as standard conditions. Substrate synthesis and processing of samples for scintillation counting were as described in Krokan and Wittwer (1981) Nucl. Acids Res., 9: 2599-2613. Single-stranded substrate was generated by boiling double-stranded substrate for 10 min, followed by rapid cooling on ice.
(§2) For measuring release of uracil from double-stranded (U-ds) or single-stranded (U-ss) DNA the various mutant enzymes (prepared as described in Example 1 and by analogous site-directed mutagenesis methods and identical expression and purification methods) were incubated with 200 ng ds- or ss-[^3H]dUMP-labelled DNA (500 mCi/mmol, 2 μM final concentration) in 20 μl separate reactions for 10 min under standard conditions as described in Example 1. For measuring release of [^3H]cytosine or [^3H]thymine, assays were performed as described in Example 1 using an incubation time of 10 min. Uracil inhibition was analysed by adding 5 mM uracil (final concentration) to a standard U-ds assay. 0 activity indicates activity below detection limit (10 pmol per mg protein per min) with 100 ng enzyme and 200 ng DNA substrate at standard conditions.

[3] = tested on: [^3H]cytosine-labelled DNA; experiment: Release of [3H]cytosine from ds or ss labelled DNA; type: biochemical; details: for C-ds, pmol excised per min per mg protein: double-stranded cytosine DNA
Procedure: as §1, §2

[4] = tested on: [^3H]thymine-labelled DNA; experiment: Release of [3H]thymine from ds or ss labelled DNA; type: biochemical; details: for T-ds, pmol excised per min per mg protein: double-stranded thymine DNA; for T-ds, pmol excised per min per mg protein / T-ss, pmol excised per min per mg protein: 10 μM, 10 min, 0 = below detection limit; for T-ss, pmol excised per min per mg protein: single-stranded thymine DNA
Procedure: as §1, §2

[5] = tested on: [^3H]dUMP-labelled DNA; experiment: Uracil inhibition in standard U-ds assay; type: biochemical; details: 5 mM uracil added to standard U-ds assay
Procedure: as §2

[6] = tested on: [^3H]dUMP-labelled DNA; experiment: Kinetic parameters on uracil substrate; type: biochemical; details: for Kcat: calculated from Vmax assuming Mr=25000
Procedure: The final concentrations of the [^3H]cytosine-DNA (C) and [^3H]thymine-DNA (T) substrates were 6.5 μM and 10 μM, respectively. Release of radioactivity as a function of time was measured at 37° C. These conditions are later referred to as standard conditions. Substrate synthesis and processing of samples for scintillation counting were as described in Krokan and Wittwer (1981) Nucl. Acids Res., 9: 2599-2613. Single-stranded substrate was generated by boiling double-stranded substrate for 10 min, followed by rapid cooling on ice.
(§3) The kinetic parameters were determined using six different substrate concentrations to obtain the Km and Vmax values. Duplicate samples were incubated for 20 min using standard assay buffer conditions and substrates as specified. Km and Vmax were calculated using the computer program Enzpack, version 3.0 after the method of Wilkinson (1961) Biochem. J., 80: 324-332.

[7] = tested on: [^3H]cytosine-labelled DNA; experiment: Kinetic parameters on cytosine substrate; type: biochemical; details: for Kcat: calculated from Vmax assuming Mr=25000
Procedure: as §1, §3

[8] = tested on: E. coli ung^+ strain (NR8051); experiment: Frequency of rifampicin resistant mutations, ung+ strain; type: cell-based
Procedure: An overnight culture of E. coli strains NR8051 and NR8052 (both recA^+, provided by Tomas Kunkel of National Institute of Environmental Health, USA) containing plasmids pTrc99A, pTUNGΔ84, UNGΔ84Tyr147Ala and UNGΔ84Asn204Asp were prepared as described in Example 1 and grown in LB-medium with ampicillin (100 μg/ml) at 30° C. The culture was then diluted 1:20 in fresh medium and cultured for 5 hours at 37° C. Induced culture contained 1 mM IPTG in the LB-medium. To determine the number of rifampicin resistant bacteria, 100 μl of the culture were mixed with 3 ml top agarose and poured on LB plates containing 100 μg/ml rifampicin and incubated overnight at 37° C. Colonies were counted and the number of rifampicin resistant colonies per 10^8 viable cells was calculated.

[9] = tested on: Escherichia coli recA^+ host cells (NR8051 and NR8052); experiment: Survival of E. coli host cells expressing CDG or TDG; type: cell-based; details: for Survival of host cells after induction by IPTG: both NR8051 and NR8052, within 5 hrs; for Survival of recA^+ host cells carrying uninduced plasmid: data not shown
[10] = tested on: Escherichia coli DH5α (recA^−); experiment: Cytotoxicity in recA- background; type: cell-based; details: E. coli DH5α, even without induction; data not shown
[11] = tested on: [^3H]thymine-labelled DNA; experiment: Kinetic parameters on thymine substrate; type: biochemical; details: for Kcat: calculated from Vmax assuming Mr=25000
Procedure: as §1, §3

[12] = tested on: 3-methyladenine; details: Roy et al. (1994); cited from earlier work
[13] = tested on: 7-methylguanine; details: Roy et al. (1994); cited from earlier work
[14] = tested on: 3-methyladenine-DNA; details: Bjelland et al. (1994); cited from earlier work
[15] = 6.5 μM, 10 min, 0 = below detection limit

Row | Molecule | U-ds, pmol excised per min per mg protein [2] | U-ss, pmol excised per min per mg protein [2] | C-ds, pmol excised per min per mg protein [3, 15] | T-ds, pmol excised per min per mg protein [4] | T-ss, pmol excised per min per mg protein [4] | Inhibition 5 mM Uracil [5] | Km ([6]; U-ds substrate) | Kcat ([6]; U-ds substrate) | Km ([6]; U-ss substrate) | Kcat ([6]; U-ss substrate) | Factor of increase of mutation frequency compared to host cells carrying parental plasmid pTrc99A ([8]; E. coli ung^+ cells, uninduced) | Factor of increase of mutation frequency compared to host cells carrying parental plasmid pTrc99A ([8]; induced ung^+ cells) | Survival of host cells after induction by IPTG [9] | Survival of recA^+ host cells carrying uninduced plasmid [9] | Cytotoxicity in recA^− background [10] | other results
1 | mouse UNG2: mouse homolog of human UNG2 | – | – | – | – | – | – | – | – | – | – | – | – | – | – | – | dpm (^3H-uracil released) ([1]; after subtraction of background of 123 dpm): 856 dpm; Activity (dpm/area), relative specific activity ([1]; translation in rabbit reticulocyte lysates): 16784 dpm/area
2 | Asn204Asp: human UDG mutant, codon 204 Asn changed to Asp; cytosine-DNA glycosylase (CDG) (protein) MGVFCLGPWGLGRKLRTPGKGPLQLLSRLCGDHLQAIPAKKAPAGQEEPGTPPSSPLSAEQLDRIQRNKAAALLRLAARNVPVGFGESWKKHLSGEFGKPYFIKLMGFVAEERKHYTVYPPPHQVFTWTQMCDIKDVKVVILGQDPYHGPNQAHGLCFSVQRPVPPPPSLENIYKELSTDIEDFVHPGHGDLSGWAKQGVLLLDAVLTVRAHQANSHKERGWEQFTDAVVSWLNQNSNGLVFLLWGSYAQKKGSAIDRKRHHVLQTAHPSPLSVYRGFFGCRHFSKTNELLQKSGKKPIDWKEL | 1.7 × 10^4 pmol excised per min per mg protein | 1.6 × 10^5 pmol excised per min per mg protein | 3.0 × 10^2 pmol excised per min per mg protein | 0 pmol excised per min per mg protein | 0 pmol excised per min per mg protein | 0% | 2.4 µM | 0.02 s⁻¹ | 2 µM | 0.25 s⁻¹ | 8.6 | approximately 8.9 | less than 50% | equal to that of the parental cell carrying plasmid pTrc99A | highly cytotoxic | UDG activity remaining compared with wild type ([2]; uracil release, ds and ss): 0.04-0.16%; Preference for single stranded substrate ([3]; ss versus ds substrate): 10 fold; Km ([7]; C-ds substrate): 35 µM; Kcat ([7]; C-ds substrate): 0.002 s⁻¹; Km ([7]; C-ss substrate): 5.3 µM; Kcat ([7]; C-ss substrate): 0.0065 s⁻¹
3 | Tyr147Ala (protein) MGVFCLGPWGLGRKLRTPGKGPLQLLSRLCGDHLQAIPAKKAPAGQEEPGTPPSSPLSAEQLDRIQRNKAAALLRLAARNVPVGFGESWKKHLSGEFGKPYFIKLMGFVAEERKHYTVYPPPHQVFTWTQMCDIKDVKVVILGQDPAHGPNQAHGLCFSVQRPVPPPPSLENIYKELSTDIEDFVHPGHGDLSGWAKQGVLLLNAVLTVRAHQANSHKERGWEQFTDAVVSWLNQNSNGLVFLLWGSYAQKKGSAIDRKRHHVLQTAHPSPLSVYRGFFGCRHFSKTNELLQKSGKKPIDWKEL | 2.2 × 10^4 pmol excised per min per mg protein | 2.2 × 10^4 pmol excised per min per mg protein | 0 pmol excised per min per mg protein | 1.3 × 10^3 pmol excised per min per mg protein | 7.5 × 10^2 pmol excised per min per mg protein | 0% | 3.5 µM | 0.0167 s⁻¹ | 0.3 µM | 0.01 s⁻¹ | 39 | ~94.4 | < 10% | equal to that of the parental cell carrying plasmid pTrc99A | highly cytotoxic | C-ss, pmol excised per min per mg protein ([3]; single-stranded cytosine DNA, 6.5 μM, 10 min, 0 = below detection limit): 0 pmol excised per min per mg protein; Preference for single stranded substrate ([4]; ss versus ds substrate): decreased preference; Km ([11]; T-ds substrate): 6 µM; Kcat ([11]; T-ds substrate): 0.001 s⁻¹; Km ([11]; T-ss substrate): 1.4 µM; Kcat ([11]; T-ss substrate): 0.00033 s⁻¹; Mutation frequency in vivo relative to CDG activity ([8]; Escherichia coli): 10 fold
4 | N-methylpurine-DNA glycosylase: recombinant N-methylpurine-DNA glycosylase from mouse (protein, UniProt Q04841 1-333, looked up) DNA-3-methyladenine …: MPARGGSARPGRGALKPVSVTLLPDTEQPPFLGRARRPGNARAGSLVTGYHEVGQMPAPLSRKIGQKKQRLADSEQQQTPKERLLSTPGLRRSIYFSSPEDHSGRLGPEFFDQPAVTLARAFLGQVLVRRLADGTELRGRIVETEAYLGPEDEAAHSRGGRQTPRNRGMFMKPGTLYVYLIYGMYFCLNVSSQGAGACVLLRALEPLEGLETMRQLRNSLRKSTVGRSLKDRELCSGPSKLCQALAIDKSFDQRDLAQDDAVWLEHGPLESSSPAVVVAAARIGIGHAGEWTQKPLRFYVQGSPWVSVVDRVAEQMDQPQQTACSEGLLIVQK | – | – | – | – | – | – | – | – | – | – | – | – | – | – | – | Kcat for excision of 3-methyladenine [12]: 0.013 s⁻¹; Kcat for excision of 7-methylguanine [13]: 0.00333 s⁻¹
5 | AlkA: Escherichia coli inducible 3-methyladenine-DNA glycosylase II (protein, UniProt P04395 1-282, looked up) DNA-3-methyladenine …: MYTLNWQPPYDWSWMLGFLAARAVSSVETVADSYYARSLAVGEYRGVVTAIPDIARHTLHINLSAGLEPVAAECLAKMSRLFDLQCNPQIVNGALGRLGAARPGLRLPGCVDAFEQGVRAILGQLVSVAMAAKLTARVAQLYGERLDDFPEYICFPTPQRLAAADPQALKALGMPLKRAEALIHLANAALEGTLPMTIPGDVEQAMKTLQTFPGIGRWTANYFALRGWQAKDVFLPDDYLIKQRFPGMTPAQIRRYAERWKPWRSYALLHIWYTEGWQPDEA | – | – | – | – | – | – | – | – | – | – | – | – | – | – | – | Turnover number on 3-methyladenine-DNA [14]: 0.03 min⁻¹
